The target of assay [1] is Recombinant CbpF from Fn ATCC 25586 (group I), passenger domain (UniProt Q8RIS0). Description: ELISA. Particulars: 3 pmol CbpF; 15 fmol CEACAM1-3-Fc mutant; developed for 5 hrs at 37°C; parent: est. 0.43; read off a plot. For orientation: ELISA stands for enzyme-linked immunosorbent assay.
Assay [2] deals with Recombinant CbpF from clinical strain 2B3 (group II), passenger domain, pOPINE construct. Nature of the assay: ELISA. Particulars: 3 pmol CbpF; 15 fmol CEACAM1-3-Fc mutant; developed for 5 hrs at 37°C; parent: est. 0.66; read off a plot.
Assay [3] concerns the target CEACAM binding protein of Fusobacterium (CbpF) of F. nucleatum ATCC 25586, FN1499 (Fusobacterium nucleatum ATCC 25586 (endogenous)). Nature of the assay: migration on SDS-PAGE and Western blot; native CbpF in lysate or co-precipitate runs at ~150 kDa against ~50 kDa predicted for the mature chain; Fn lysate gives a ~50 kDa band after 70% formic acid.
Assay [4] deals with Recombinant CbpF from Fn ATCC 25586 (group I), passenger domain (Fusobacterium nucleatum ATCC 25586) (UniProt Q8RIS0). Nature of the assay: ELISA; purified CbpFI and CbpFII (3 pmol) immobilised on plates; 1 pmol of each CEACAM-Fc variant; anti-human secondary antibody.
In assay [5] the target is CEACAM binding protein of Fusobacterium (CbpF) of F. vincentii ATCC 49256, FNV1729 (Fusobacterium vincentii ATCC 49256 (endogenous)). Description: migration on SDS-PAGE and Western blot; native CbpF in lysate or co-precipitate runs at ~150 kDa against ~50 kDa predicted for the mature chain; Fn lysate gives a ~50 kDa band after 70% formic acid.
In assay [6] the target is Recombinant CbpF from clinical isolate 2B3 (protein of Figure 8, dot blot and Figure S9). Nature of the assay: ELISA. Particulars: chain shown with the change; read at 2 µg.ml-1 of the Fc construct (highest point of the titration); recombinant CbpF immobilised; parent: est. 1.9; read off a plot.
Assay [7] concerns the target T1, Recombinant CbpF from Fn ATCC 25586 (group I), passenger domain, Q8RIS0.
T1 chain: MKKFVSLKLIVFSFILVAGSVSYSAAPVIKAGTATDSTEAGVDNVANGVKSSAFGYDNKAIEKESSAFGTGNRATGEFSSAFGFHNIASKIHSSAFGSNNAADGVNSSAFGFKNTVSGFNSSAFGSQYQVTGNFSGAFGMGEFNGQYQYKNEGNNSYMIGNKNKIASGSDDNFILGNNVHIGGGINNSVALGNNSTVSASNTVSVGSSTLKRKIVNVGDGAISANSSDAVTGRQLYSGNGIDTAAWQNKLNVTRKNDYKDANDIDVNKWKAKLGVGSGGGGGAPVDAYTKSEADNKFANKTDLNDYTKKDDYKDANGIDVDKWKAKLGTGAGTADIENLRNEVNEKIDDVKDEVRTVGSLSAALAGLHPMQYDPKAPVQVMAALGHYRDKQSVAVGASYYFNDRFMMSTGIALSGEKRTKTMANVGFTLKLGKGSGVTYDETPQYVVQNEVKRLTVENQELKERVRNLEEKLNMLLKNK
Nature of the assay: ELISA. Particulars: chain shown with the change; 3 pmol CbpF; 15 fmol CEACAM1-3-Fc mutant; developed for 5 hrs at 37°C; parent: est. 0.43; read off a plot.

response, stoichiometry N and binding relative to group II CbpF data for 23 molecules are collected here from article PMC6346709.

On to “CEACAM1-3-Fc (containing N-A1-B1 domains) Y34A”, for which the response in assay [1] was found to be 0.021 A405; in assay [2], 0.043 A405.

In the case of “CEACAM1-3-Fc (containing N-A1-B1 domains) Q44R”, the response turned out to be 0.02 A405 in assay [1] and 0.013 A405 in assay [2].

Consider “CEACAM1-3-Fc (containing N-A1-B1 domains) I91G”, for which the response in assay [1] was 0.066 A405; in assay [2] it was 0.017 A405.

For “CEACAM1-3-Fc (containing N-A1-B1 domains) Q44L”, the response in assay [1] came to 0.027 A405; in assay [2] it was 0.021 A405.

Take “CEACAM1-3-Fc (containing N-A1-B1 domains) F29I”: the response in assay [1] was 0.012 A405; in assay [2], 0.017 A405.

Take “CEACAM1-3-Fc (containing N-A1-B1 domains) Y34F”: the values for the response in assay [1] and in assay [2] were 0.017 A405 and 0.013 A405, respectively.

What is called stoichiometry N is the number of molecules, sites or subunits per partner or assembly. In the case of “CEACAM binding protein of Fusobacterium (CbpF) of F. nucleatum ATCC 25586, FN1499 (natural protein)”, in assay [3], the stoichiometry N is 3.

“CEACAM1-3-Fc (containing N-A1-B1 domains) Q44E”: the response in assay [1] turned out to be 0.02 A405; in assay [2], 0.017 A405.

With “CEACAM1-3-Fc (containing N-A1-B1 domains) I91A”, the response in assay [1] amounted to 0.02 A405; in assay [2], 0.01 A405.

As to “CEACAM1-3-Fc (containing N-A1-B1 domains) F29R”, the response in assay [1] and in assay [2] was 0.013 A405 throughout.

For the molecule “CEACAM1-3-Fc (containing N-A1-B1 domains) Y34S”, the response in assay [1] is 0.017 A405; in assay [2], 0.012 A405.

As for “CEACAM1-3-Fc (containing N-A1-B1 domains) I91L”, the response amounted to 0.022 A405 in assay [1] and 0.006 A405 in assay [2].

With “CEA-Fc (from UniProt P06731 35-685) (Fc fusion)”, the binding relative to group II CbpF in assay [4] is 50%.

As for “CEACAM1-3-Fc (containing N-A1-B1 domains) F29Y”, the values for the response in assay [1] and in assay [2] were 0.017 A405 and 0.082 A405, respectively.

In the case of “CEACAM1-3-Fc (containing N-A1-B1 domains) F29G”, the response in assay [1] and in assay [2] was 0.012 A405 in each case.

Turning to “CEACAM binding protein of Fusobacterium (CbpF) of F. vincentii ATCC 49256, FNV1729 (natural protein)”, the stoichiometry N in assay [5] is 3.

For the molecule “CEACAM1-Fc, comprising all extracellular CEACAM1 domains fused to the human immunoglobulin G (IgG) Fc domain (from UniProt P13688 35-428) (Fc fusion)”, in assay [4], the binding relative to group II CbpF came to 75%.

Consider “CEACAM1-3-Fc (containing N-A1-B1 domains) G47L”, for which the response in assay [1] was 0.007 A405; in assay [2], 0.008 A405.

Take “CEACAM1-3-Fc (containing N-A1-B1 domains) Q89N”: in assay [2], the response was 0.17 A405.

For “CEACAM1-3-Fc (containing N-A1-B1 domains) V96A”, the response in assay [2] was 0.87 A405.

B1: CEACAM1-Fc, comprising all extracellular CEACAM1 domains fused to the human immunoglobulin G (IgG) Fc domain, P13688 I91A (protein)
chain: QLTTESMPFNVAEGKEVLLLVHNLPQQLFGYSWYKGERVDGNRQIVGYAIGTQQATPGPANSGRETIYPNASLLIQNVTQNDTGFYTLQVAKSDLVNEEATGQFHVYPELPKPSISSNNSNPVEDKDAVAFTCEPETQDTTYLWWINNQSLPVSPRLQLSNGNRTLTLLSVTRNDTGPYECEIQNPVSANRSDPVTLNVTYGPDTPTISPSDTYYRPGANLSLSCYAASNPPAQYSWLINGTFQQSTQELFIPNITVNNSGSYTCHANNSVTGCNRTTVKTIIVTELSPVVAKPQIKASKTTVTGDKDSVNLTCSTNDTGISIRWFFKNQSLPSSERMKLSQGNTTLSINPVKREDAGTYWCEVFNPISKNQSDPIMLNVNYNALPQENGLSPG
In the case of B1, in assay [6], the response was 0 A405.

B2: CEACAM1-3-Fc (containing N-A1-B1 domains) V96A (protein)
chain: QLTTESMPFNVAEGKEVLLLVHNLPQQLFGYSWYKGERVDGNRQIVGYAIGTQQATPGPANSGRETIYPNASLLIQNVTQNDTGFYTLQVIKSDLANEEATGQFHVYPELPKPSISSNNSNPVEDKDAVAFTCEPETQDTTYLWWINNQSLPVSPRLQLSNGNRTLTLLSVTRNDTGPYECEIQNPVSANRSDPVTLNVTYGPDTPTISPSDTYYRPGANLSLSCYAASNPPAQYSWLINGTFQQSTQELFIPNITVNNSGSYTCHANNSVTGCNRTTVKTIIVTGK
Consider B2, for which the response in assay [7] was found to be 0.4 A405.

B3: CEACAM1-3-Fc (containing N-A1-B1 domains) Q89N (protein)
chain: QLTTESMPFNVAEGKEVLLLVHNLPQQLFGYSWYKGERVDGNRQIVGYAIGTQQATPGPANSGRETIYPNASLLIQNVTQNDTGFYTLNVIKSDLVNEEATGQFHVYPELPKPSISSNNSNPVEDKDAVAFTCEPETQDTTYLWWINNQSLPVSPRLQLSNGNRTLTLLSVTRNDTGPYECEIQNPVSANRSDPVTLNVTYGPDTPTISPSDTYYRPGANLSLSCYAASNPPAQYSWLINGTFQQSTQELFIPNITVNNSGSYTCHANNSVTGCNRTTVKTIIVTGK
Take B3: in assay [7], the response came out at 0.024 A405.
